Where a chain is given by its changes, count along the chain named. Values joined by “and” are separate entries in the source; they are usually repeats but may differ in a detail not shown here. Equal values may be shown once. Where no end group is shown, it is not given here.
T1: mMepS-L24R (E. coli, UniProt P0AFV4 27-188, C1 replaced with a Met residue | L24R)
T1 construct: Site-directed mutant of mMepS; also called L24R variant; source: E. coli BL21 (DE3), purified (Ni-NTA, SEC)
T1 sequence (looked up): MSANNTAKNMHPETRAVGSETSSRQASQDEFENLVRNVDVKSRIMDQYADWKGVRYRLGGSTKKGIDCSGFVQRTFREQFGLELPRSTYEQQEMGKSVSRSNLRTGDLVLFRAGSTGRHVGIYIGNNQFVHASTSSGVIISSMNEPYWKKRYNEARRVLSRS

T2: mMepS-Q28A (E. coli, UniProt P0AFV4 27-188, C1 replaced with a Met residue | Q28A)
T2 construct: Site-directed mutant of mMepS; source: E. coli BL21 (DE3), purified (Ni-NTA, SEC)
T2 sequence (looked up): T1 sequence (looked up) with R24L, Q28A

B1: soluble mature form of MepS (mMepS, residues 1-162) (enzyme, E. coli, UniProt P0AFV4 27-188, looked up)
chain: T1 sequence (looked up) with R24L
notes: numbers count on: the mature protein; Cloned into either pET21a (C-terminal His-tag) or pET28a (N-terminal His-tag and TEV site); also called mMepS-1; mMepS-2; source: E. coli BL21 (DE3), purified (Ni-NTA, SEC)
B2: mMepS-Q28A (enzyme, E. coli, UniProt P0AFV4 27-188, looked up)
chain: T1 sequence (looked up) with R24L, Q28A
notes: numbers count on: the mature protein; Site-directed mutant of mMepS; source: E. coli BL21 (DE3), purified (Ni-NTA, SEC)
B3: soluble mature form of MepS (mMepS, residues 1-162) (enzyme, E. coli, UniProt P0AFV4 27-188, looked up)
chain: T1 sequence (looked up) with R24L
modifications: 15N-labelled in the NMR titrations
notes: Cloned into either pET21a (C-terminal His-tag) or pET28a (N-terminal His-tag and TEV site); also called wild-type mMepS; mature full-length MepS; source: E. coli BL21 (DE3), purified (Ni-NTA, SEC)
B4: mMepS-D39A (enzyme, E. coli, UniProt P0AFV4 27-188, looked up)
chain: T1 sequence (looked up) with R24L, D39A
notes: Site-directed mutant of mMepS; source: E. coli BL21 (DE3), purified (Ni-NTA, SEC)
B5: mMepS-L24R (enzyme, E. coli, UniProt P0AFV4 27-188, looked up)
chain: T1 sequence (looked up)
notes: as for B2
B6: mMepS-D39A (enzyme, E. coli, UniProt P0AFV4 27-188, looked up)
chain: T1 sequence (looked up) with R24L, D39A
notes: as for B2
B7: MepS-N53 (residues 1-53) (domain or fragment, E. coli, UniProt P0AFV4 27-79, looked up)
chain: MSANNTAKNMHPETRAVGSETSSLQASQDEFENLVRNVDVKSRIMDQYADWKG
notes: MepS, E. coli, mature residues 1-53, C1 replaced by Met; numbers count on: the mature protein; His-tag and TEV site; nothing is said for the ITC samples; source: E. coli BL21 (DE3), purified (Ni-NTA, SEC)
B8: MepS-N53 (residues 1-53) (domain or fragment, E. coli, UniProt P0AFV4 27-79, looked up)
chain: B7 chain
modifications: also: 15N-labelled
notes: MepS, E. coli, N-terminal 53 residues of the mature protein, C1 replaced with Met. numbers count on: the mature protein; this is told for the NMR samples, not for ITC; source: E. coli BL21 (DE3), purified (Ni-NTA, SEC); not shown: His6 with TEV site, N-terminal, kept
B9: NlpI (residues 20-294), soluble mature lipoprotein NlpI without the lipoprotein signal peptide (natural protein, E. coli, UniProt P0AFB1 20-294, looked up)
chain: SNTSWRKSEVLAVPLQPTLQQEVILARMEQILASRALTDDERAQLLYERGVLYDSLGLRALARNDFSQALAIRPDMPEVFNYLGIYLTQAGNFDAAYEAFDSVLELDPTYNYAHLNRGIALYYGGRDKLAQDDLLAFYQDDPNDPFRSLWLYLAEQKLDEKQAKEVLKQHFEKSDKEQWGWNIVEFYLGNISEQTLMERLKADATDNTSLAEHLSETNFYLGKYYLSLGDLDSATALFKLAVANNVHNFVEHRYALLELSLLGQDQDDLAESDQQ
notes: the lipidation residue C19 is not in the construct; pET28a, N-terminal His-tag followed by a TEV site; also called NlpI dimer; adaptor NlpI; source: E. coli BL21 (DE3), purified (Ni-NTA, SEC, MonoQ)
B10: MepS-N39 (residues 1-39) (domain or fragment, E. coli, UniProt P0AFV4 27-65, looked up)
chain: MSANNTAKNMHPETRAVGSETSSLQASQDEFENLVRNVD
notes: MepS, E. coli, mature residues 1-39, C1 replaced by Met; numbers count on: the mature protein; His-tag and TEV site; nothing is said for the ITC samples; source: E. coli BL21 (DE3), purified (Ni-NTA, SEC)
B11: MepS-N39 (residues 1-39) (domain or fragment, E. coli, UniProt P0AFV4 27-65, looked up)
chain: B10 chain
modifications: also: 15N-labelled
notes: MepS, E. coli, N-terminal 39 residues of the mature protein, C1 replaced with Met. numbers count on: the mature protein; this is told for the NMR samples, not for ITC; source: E. coli BL21 (DE3), purified (Ni-NTA, SEC); not shown: His6 with TEV site, N-terminal, kept

Assays:
[1] = biological target: T3, NlpI (residues 20-294, without the lipoprotein signal peptide) (E. coli, UniProt P0AFB1 20-294); test: ITC; NlpI (or NlpI-ΔN) in the syringe, 300 or 600 µM, injected into 30 µM MepS protein in the cell; 20 °C; 20 mM HEPES pH 7.5, 300 mM NaCl, 2 mM β-mercaptoethanol; one set of sites model; three experiments and their average; details: both partners purified
T3 construct: the lipidation site C19 is not in the construct; pET28a with an N-terminal His-tag and a TEV cleavage site; also called NlpI-WT; NlpI dimer; source: E. coli BL21 (DE3), purified (Ni-NTA, SEC, MonoQ)

[2] = biological target: B9; test: ITC; NlpI (300 or 600 µM) injected into 30 µM MepS protein in the cell; 20 °C; 20 mM HEPES pH 7.5, 300 mM NaCl, 2 mM β-mercaptoethanol; one set of sites model; details: both partners purified
[3] = biological target: B3; test: NMR titration; 1H-15N TROSY-HSQC of 15N-labelled MepS protein (50 µM in Fig. 1) with unlabelled NlpI dimer (25 µM), NlpI-ΔN or Prc^SK added; 298 K; intensity ratios I/I0; details: both partners purified
[4] = biological target: the molecule itself; test: crystal structure; NlpI-mMepS complex, 2.8 Å, space group C2, PDB 8XUP
[5] = biological target: B3; test: ITC; NlpI (300 or 600 µM) injected into 30 µM MepS protein in the cell; 20 °C; 20 mM HEPES pH 7.5, 300 mM NaCl, 2 mM β-mercaptoethanol; one set of sites model; details: both partners purified
mMepS-L24R = biological target: T1, mMepS-L24R; test: as above; details: both partners purified
mMepS-Q28A = biological target: T2, mMepS-Q28A; test: as above; details: both partners purified

Row | Kd [1] | Kd [2] [nM] | Binder | other results
1 | 250 nM and 220 nM | – | B1 | –
2 | 1910 nM and 1770 nM and 1880 nM and 1850 nM | – | B2 | –
3 | – | 240 | B3 | –
4 | – | 390 | B4 | –
5 | 6210 nM and 6800 nM and 6940 nM and 6650 nM | – | B5 | –
6 | 280 nM and 390 nM and 500 nM | – | B6 | –
7 | 1190 nM and 1560 nM and 1590 nM | – | B7 | –
8 | – | 1450 | B8 | –
9 | – | – | B9 | NMR signal intensity ratio with NlpI [3]: < 10%; stoichiometry N [4]: 2; stoichiometry N [5]: 1; fold increase in KD against mMepS (mMepS-L24R): ~28 fold; fold decrease in binding affinity against mMepS (mMepS-Q28A): 7.7 fold
10 | 2650 nM and 2550 nM and 2840 nM | – | B10 | –
11 | – | 2680 | B11 | –

Reference: publication PMC11211486, “Structural basis for recruitment of peptidoglycan endopeptidase MepS by lipoprotein NlpI” (Nature Communications, 2024)
